Publication PMC3176292, “Mutations in Protein-Binding Hot-Spots on the Hub Protein Smad3 Differentially Affect Its Protein Interactions and Smad3-Regulated Gene Expression” (PLoS ONE, 2011)
Numbering of substitutions follows the chain as printed.

How the values were obtained:
Assay in all cases: co-IP; LUMIER: Renilla luciferase-Smad3 and Flag-tagged partner co-expressed with constitutively active Alk5 in HEK-293; Flag protein captured from cleared lysate (TNE: 10 mM Tris-HCl pH 7.8, 150 mM NaCl, 1 mM EDTA, 1% Igepal CA-630) on anti-Flag 96-well plates, 2 h at 4 °C; co-precipitated Renilla luciferase activity, TrxGA background subtracted, percent of wild-type Smad3
Conditions in all cases: partners not purified
[1] = molecular target: T1, Flag-Smad4, full length (UniProt Q13485 1-552)
T1 construct: Smad4; plasmid pCMV5-Flag-Smad4 (from J. Massagué); also called Smad4 FL; source: HEK-293, transfected, in lysate
T1 sequence (looked up): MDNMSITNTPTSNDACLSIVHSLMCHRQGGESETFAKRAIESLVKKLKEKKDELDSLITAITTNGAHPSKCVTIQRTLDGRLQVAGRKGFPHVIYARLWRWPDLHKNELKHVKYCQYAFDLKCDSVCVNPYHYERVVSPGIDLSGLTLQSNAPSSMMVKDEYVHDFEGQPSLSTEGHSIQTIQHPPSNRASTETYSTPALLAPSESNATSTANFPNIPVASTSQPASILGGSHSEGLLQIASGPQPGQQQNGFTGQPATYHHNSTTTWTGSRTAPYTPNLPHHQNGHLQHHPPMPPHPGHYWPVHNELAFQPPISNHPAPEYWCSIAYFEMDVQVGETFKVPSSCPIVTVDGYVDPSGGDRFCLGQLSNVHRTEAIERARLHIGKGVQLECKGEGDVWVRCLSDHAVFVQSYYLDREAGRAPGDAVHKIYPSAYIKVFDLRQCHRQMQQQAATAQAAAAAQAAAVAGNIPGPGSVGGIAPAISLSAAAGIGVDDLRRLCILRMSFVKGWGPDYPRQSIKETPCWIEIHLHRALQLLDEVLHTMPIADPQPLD

[2] = molecular target: T2, SIP1 Smad-binding domain (amino acids 315–487) on the 3xFlag-thioredoxin scaffold (UniProt Q9R0G7 315-487)
T2 construct: SIP1, amino acids 315–487; amplified from pACT2-SIP1-315-487 (from D. Huylebroeck), which I recall as a mouse clone; cloned into the RsrII site of pCI-3xFLAG-Trx; also called Sip1 315–487; TrxSIP1; source: HEK-293, transfected, in lysate
T2 sequence (looked up): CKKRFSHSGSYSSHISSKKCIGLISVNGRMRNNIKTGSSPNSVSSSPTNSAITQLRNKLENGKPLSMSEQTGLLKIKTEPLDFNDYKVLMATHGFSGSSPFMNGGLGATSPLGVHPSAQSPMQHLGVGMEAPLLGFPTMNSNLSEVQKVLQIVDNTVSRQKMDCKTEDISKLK

[3] = molecular target: T3, Flag-Smad3, full length (UniProt P84022 1-425)
T3 construct: Smad3; plasmid pCMV5-Flag-Smad3 (from J. Massagué); bait for Smad3-Smad3 association; also called Smad3 FL; source: HEK-293, transfected together with constitutively active Alk5, in lysate

[4] = molecular target: T4, SARA Smad-binding domain (amino acids 665–721) on the 3xFlag-thioredoxin scaffold (UniProt O95405 767-823)
T4 construct: SARA, amino acids 665–721; cloned into the unique RsrII site of pCI-3xFLAG-Trx; also called SARA aa665–721; TrxSARA; source: HEK-293, transfected, in lysate
T4 sequence (looked up): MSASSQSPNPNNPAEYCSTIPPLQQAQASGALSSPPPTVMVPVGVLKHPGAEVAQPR

[5] = molecular target: T5, Smurf2 Smad-binding domain (amino acids 252–330) on the Flag-thioredoxin scaffold (UniProt Q9HAU4 252-330)
T5 construct: Smurf2, amino acids 252–330; also called Smurf2 aa252–330; TrxSmurf2; source: HEK-293, transfected, in lysate
T5 sequence (Q9HAU4 252-330): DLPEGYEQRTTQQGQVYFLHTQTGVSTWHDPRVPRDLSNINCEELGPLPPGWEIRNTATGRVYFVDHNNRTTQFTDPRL

[6] = molecular target: T1, Flag-Smad4, full length; remark: listed apart in the source
[7] = molecular target: T6, Ski Smad-binding domain (amino acids 2–56) on the 3xFlag-thioredoxin scaffold (UniProt P12755 2-56)
T6 construct: Ski, amino acids 2–56; cloned into the unique RsrII site of pCI-3xFLAG-Trx; also called Ski aa2–56; TrxSki; source: HEK-293, transfected, in lysate
T6 sequence (looked up): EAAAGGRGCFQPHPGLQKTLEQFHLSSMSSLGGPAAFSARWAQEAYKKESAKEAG

B1: Renilla luciferase-Smad3 D408H (natural protein, UniProt P84022 1-425, looked up)
chain: MSSILPFTPPIVKRLLGWKKGEQNGQEEKWCEKAVKSLVKKLKKTGQLDELEKAITTQNVNTKCITIPRSLDGRLQVSHRKGLPHVIYCRLWRWPDLHSHHELRAMELCEFAFNMKKDEVCVNPYHYQRVETPVLPPVLVPRHTEIPAEFPPLDDYSHSIPENTNFPAGIEPQSNIPETPPPGYLSEDGETSDHQMNHSMDAGSPNLSPNPMSPAHNNLDLQPVTYCEPAFWCSISYYELNQRVGETFHASQPSMTVDGFTDPSNSERFCLGLLSNVNRNAAVELTRRHIGRGVRLYYIGGEVFAECLSDSAIFVQSPNCNQRYGWHPATVCKIPPGCNLKIFNNQEFAALLAQSVNQGFEAVYQLTRMCTIRMSFVKGWGAEYRRQTVTSTPCWIELHLNGPLQWLHKVLTQMGSPSIRCSSVS
notes: Smad3; source: HEK-293, transfected together with constitutively active Alk5, in lysate
[1]
  percent binding relative to wild-type Smad3: 3%
[2]
  percent binding relative to wild-type Smad3: 41%
[3]
  percent binding relative to wild-type Smad3: 30%

B2: Renilla luciferase-Smad3 Y238A (natural protein, UniProt P84022 1-425, looked up)
chain: B1 chain with Y238A, H408D
notes: as for B1
[2]
  percent binding relative to wild-type Smad3: 15%
[4]
  percent binding relative to wild-type Smad3: 74%
[5]
  percent binding relative to wild-type Smad3: 28%
[3]
  percent binding relative to wild-type Smad3: 24%
[6]
  percent binding relative to wild-type Smad3: 27%
[7]
  percent binding relative to wild-type Smad3: 2%

B3: Renilla luciferase-Smad3 Y297A (natural protein, UniProt P84022 1-425, looked up)
chain: B1 chain with Y297A, H408D
notes: as for B1
[1]
  percent binding relative to wild-type Smad3: 181%

B4: Renilla luciferase-Smad3 R268A (natural protein, UniProt P84022 1-425, looked up)
chain: B1 chain with R268A, H408D
notes: as for B1
[2]
  percent binding relative to wild-type Smad3: 13%
[4]
  percent binding relative to wild-type Smad3: 116%
[5]
  percent binding relative to wild-type Smad3: 21%
[3]
  percent binding relative to wild-type Smad3: 27%
[6]
  percent binding relative to wild-type Smad3: 18%
[7]
  percent binding relative to wild-type Smad3: 2%

B5: Renilla luciferase-Smad3 R292A (natural protein, UniProt P84022 1-425, looked up)
chain: B1 chain with R292A, H408D
notes: as for B1
[2]
  percent binding relative to wild-type Smad3: 32%
[4]
  percent binding relative to wild-type Smad3: 78%
[5]
  percent binding relative to wild-type Smad3: 31%
[3]
  percent binding relative to wild-type Smad3: 49%
[6]
  percent binding relative to wild-type Smad3: 49%
[7]
  percent binding relative to wild-type Smad3: 4%

B6: Renilla luciferase-Smad3 R243A (natural protein, UniProt P84022 1-425, looked up)
chain: B1 chain with R243A, H408D
notes: as for B1
[2]
  percent binding relative to wild-type Smad3: 28%
[4]
  percent binding relative to wild-type Smad3: 72%
[5]
  percent binding relative to wild-type Smad3: 19%
[3]
  percent binding relative to wild-type Smad3: 46%
[6]
  percent binding relative to wild-type Smad3: 20%
[7]
  percent binding relative to wild-type Smad3: 3%

B7: Renilla luciferase-Smad3 Y384A (natural protein, UniProt P84022 1-425, looked up)
chain: B1 chain with Y384A, H408D
notes: as for B1
[2]
  percent binding relative to wild-type Smad3: 41%
[4]
  percent binding relative to wild-type Smad3: 119%
[5]
  percent binding relative to wild-type Smad3: 24%
[3]
  percent binding relative to wild-type Smad3: 28%
[6]
  percent binding relative to wild-type Smad3: 19%
[7]
  percent binding relative to wild-type Smad3: 3%
